The RNAGym collection of RNA variant scans (doi:10.1093/molbev/msab373)

B1: Azoarcus group I ribozyme (parent)
chain: GUGCCUUGCGCCGGGAAACCACGCAAGGGAUGGUGUCAAAUUCGGCGAAACCUAAGCGCCCGCCCGGGCGUAUGGCAACGCCGAGCCAAGCUUCGGCGCCUGCGCCGAUGAAGGUGUAGAGACUAGACGGCACCCACCUAAGGCAAACGCUAUGGUGAAGGCAUAGUCCAGGGAGUGGCGAAAGUCACACAAACCGG

Variants of: B1
Test: reverse-splicing fitness (ratio to wild type); higher = more active; in vitro selection; Mg2+ level not given
Outline: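 An in vitro group I ribozyme library with randomized positions was T7-transcribed and gel-purified. In triplicate, 10 pmol RNA in EPPS pH 7.5 was reacted with 50 pmoles of a 30-nt RNA substrate for 1 h at 37 °C across several added MgCl2 levels (1–48 mM), then stopped with EDTA. Products were reverse transcribed from a substrate-complementary primer, PCR-amplified and sequenced (HiSeq 4000). Fitness is a variant's read proportion after selection over that before, normalised to wild type.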

Row | Variant | reverse-splicing fitness
1 | C82U A111G A120G A145C C150G C169A U176G | 0.00439
2 | C82U A111G A120G A145C C150G C169G | 0.00713
3 | C82U A111G A120G A145C C150G C169G U176A | 0.00868
4 | C82U A111G A120G A145C C150G C169G U176C | 0.00692
5 | C82U A111G A120G A145C C150G C169G U176G | 0.00399
6 | C82U A111G A120G A145C C150G C169U | 0.00741
7 | C82U A111G A120G A145C C150G C169U U176A | 0.0136
8 | C82U A111G A120G A145C C150G C169U U176C | 0.0102
9 | C82U A111G A120G A145C C150G C169U U176G | 0.00462
10 | C82U A111G A120G A145C C150G U176A | 0.00404
11 | C82U A111G A120G A145C C150G U176C | 0.00614
12 | C82U A111G A120G A145C C150G U176G | 0.00261
13 | C82U A111G A120G A145C C150U | 0.00813
14 | C82U A111G A120G A145C C150U C169A | 0.0078
15 | C82U A111G A120G A145C C150U C169A U176A | 0.0104
16 | C82U A111G A120G A145C C150U C169A U176C | 0.00548
17 | C82U A111G A120G A145C C150U C169A U176G | 0.00395
18 | C82U A111G A120G A145C C150U C169G | 0.00844
19 | C82U A111G A120G A145C C150U C169G U176A | 0.0203
20 | C82U A111G A120G A145C C150U C169G U176C | 0.0111
21 | C82U A111G A120G A145C C150U C169G U176G | 0.0045

Row | Variant | reverse-splicing fitness
22 | C82U A111G A120G A145C C150U C169U | 0.00745
23 | C82U A111G A120G A145C C150U C169U U176A | 0.0196
24 | C82U A111G A120G A145C C150U C169U U176C | 0.0091
25 | C82U A111G A120G A145C C150U C169U U176G | 0.00413
26 | C82U A111G A120G A145C C150U U176A | 0.0079
27 | C82U A111G A120G A145C C150U U176C | 0.00908
28 | C82U A111G A120G A145C C150U U176G | 0.00386
29 | C82U A111G A120G A145C C169A | 0.00792
30 | C82U A111G A120G A145C C169A U176A | 0.011
31 | C82U A111G A120G A145C C169A U176C | 0.00572
32 | C82U A111G A120G A145C C169A U176G | 0.00366
33 | C82U A111G A120G A145C C169G | 0.0123
34 | C82U A111G A120G A145C C169G U176A | 0.0238
35 | C82U A111G A120G A145C C169G U176C | 0.0158
36 | C82U A111G A120G A145C C169G U176G | 0.0039
37 | C82U A111G A120G A145C C169U | 0.00954
38 | C82U A111G A120G A145C C169U U176A | 0.0189
39 | C82U A111G A120G A145C C169U U176C | 0.0105
40 | C82U A111G A120G A145C C169U U176G | 0.00353
41 | C82U A111G A120G A145C U176A | 0.0105
42 | C82U A111G A120G A145C U176C | 0.00983

Row | Variant | reverse-splicing fitness
43 | C82U A111G A120G A145C U176G | 0.00368
44 | C82U A111G A120G A145G | 0.0164
45 | C82U A111G A120G A145G C150A | 0.00878
46 | C82U A111G A120G A145G C150A C169A | 0.00945
47 | C82U A111G A120G A145G C150A C169A U176A | 0.0174
48 | C82U A111G A120G A145G C150A C169A U176C | 0.0196
49 | C82U A111G A120G A145G C150A C169A U176G | 0.00545
50 | C82U A111G A120G A145G C150A C169G | 0.009
51 | C82U A111G A120G A145G C150A C169G U176A | 0.0174
52 | C82U A111G A120G A145G C150A C169G U176C | 0.0228
53 | C82U A111G A120G A145G C150A C169G U176G | 0.00482
54 | C82U A111G A120G A145G C150A C169U | 0.00914
55 | C82U A111G A120G A145G C150A C169U U176A | 0.0215
56 | C82U A111G A120G A145G C150A C169U U176C | 0.0156
57 | C82U A111G A120G A145G C150A C169U U176G | 0.00573
58 | C82U A111G A120G A145G C150A U176A | 0.0088
59 | C82U A111G A120G A145G C150A U176C | 0.0196
60 | C82U A111G A120G A145G C150A U176G | 0.00593
61 | C82U A111G A120G A145G C150G | 0.00721
62 | C82U A111G A120G A145G C150G C169A | 0.00895
63 | C82U A111G A120G A145G C150G C169A U176A | 0.0123

Row | Variant | reverse-splicing fitness
64 | C82U A111G A120G A145G C150G C169A U176C | 0.0117
65 | C82U A111G A120G A145G C150G C169A U176G | 0.00756
66 | C82U A111G A120G A145G C150G C169G | 0.00721
67 | C82U A111G A120G A145G C150G C169G U176A | 0.00945
68 | C82U A111G A120G A145G C150G C169G U176C | 0.011
69 | C82U A111G A120G A145G C150G C169G U176G | 0.00529
70 | C82U A111G A120G A145G C150G C169U | 0.00855
71 | C82U A111G A120G A145G C150G C169U U176A | 0.0114
72 | C82U A111G A120G A145G C150G C169U U176C | 0.0105
73 | C82U A111G A120G A145G C150G C169U U176G | 0.00643
74 | C82U A111G A120G A145G C150G U176A | 0.00637
75 | C82U A111G A120G A145G C150G U176C | 0.00856
76 | C82U A111G A120G A145G C150G U176G | 0.00546
77 | C82U A111G A120G A145G C150U | 0.0132
78 | C82U A111G A120G A145G C150U C169A | 0.0108
79 | C82U A111G A120G A145G C150U C169A U176A | 0.0143
80 | C82U A111G A120G A145G C150U C169A U176C | 0.0148
81 | C82U A111G A120G A145G C150U C169A U176G | 0.00562
82 | C82U A111G A120G A145G C150U C169G | 0.0111
83 | C82U A111G A120G A145G C150U C169G U176A | 0.014
